The results in this text go back to publication doi:10.1101/589119.

The test has as its target core Cascade subunits (crRNA, Cas11, Cas7, Cas5, Cas6e) (E. coli K12) (UniProt Q46899). The experiment in a line: single-particle tracking PALM.
Sequence of UniProt Q46899 (Q46899 whole entry, looked up): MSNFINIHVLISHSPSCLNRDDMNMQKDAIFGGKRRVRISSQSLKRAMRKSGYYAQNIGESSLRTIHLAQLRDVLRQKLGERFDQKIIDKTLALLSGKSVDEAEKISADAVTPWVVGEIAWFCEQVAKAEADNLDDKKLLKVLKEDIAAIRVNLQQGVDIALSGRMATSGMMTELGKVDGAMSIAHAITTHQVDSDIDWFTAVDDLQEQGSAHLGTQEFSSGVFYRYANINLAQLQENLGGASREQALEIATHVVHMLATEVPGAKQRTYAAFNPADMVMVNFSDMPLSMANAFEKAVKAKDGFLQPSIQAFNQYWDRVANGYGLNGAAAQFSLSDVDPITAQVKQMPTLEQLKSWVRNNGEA

In turn, “PAmCherry2-Cas8e (Cascade subunit Cas8e with a photoactivatable fluorescent protein fused to its N-terminus) (natural protein)” yielded a fraction of Cas8e in Cascade complexes of 60%.
